Test results from article PMC7722734, “Reverse C-glycosidase reaction provides C-nucleotide building blocks of xenobiotic nucleic acids” (Nature Communications, 2020).

T1: Ribokinase (RbsK) (Escherichia coli, UniProt P0A9J6)
T1 construct: full length, N-terminal His6 tag (pET15b), expressed in E. coli BL21(DE3) pLys; 32,290 Da
T1 sequence (P0A9J6 1-309): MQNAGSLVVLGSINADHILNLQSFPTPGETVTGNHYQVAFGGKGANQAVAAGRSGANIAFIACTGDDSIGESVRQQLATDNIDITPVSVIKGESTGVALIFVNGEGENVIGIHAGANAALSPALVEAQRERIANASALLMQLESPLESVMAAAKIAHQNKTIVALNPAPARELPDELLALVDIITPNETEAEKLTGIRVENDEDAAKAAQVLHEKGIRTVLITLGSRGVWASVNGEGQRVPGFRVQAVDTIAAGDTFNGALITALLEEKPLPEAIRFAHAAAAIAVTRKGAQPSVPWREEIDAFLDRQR


Assays:
Ribokinase (RbsK) = target: T1, Ribokinase (RbsK); assay: phosphorylation, TLC; type: biochemical; settings: 2 mM ATP with PEP and pyruvate kinase, 1 mM MgCl2, 10 mM HEPES pH 7.0, 37 °C
purified protein [1] = substrate: Cn1c(=O)cc[nH]c1=O; assay: purified protein; settings: 5 mM D-Rib5P, 2 mM MnCl2, 50 mM HEPES pH 7.0, 37 °C, reverse (synthesis) direction
purified protein [2] = substrate: Nc1cc(=O)[nH]c(=O)[nH]1; assay: purified protein; settings: 5 mM D-Rib5P, 2 mM MnCl2, 50 mM HEPES pH 7.0, 37 °C, reverse (synthesis) direction
purified protein [3] = substrate: O=c1cc[nH]c(=S)[nH]1; assay: purified protein; settings: 5 mM D-Rib5P, 2 mM MnCl2, 50 mM HEPES pH 7.0, 37 °C, reverse (synthesis) direction
purified protein [4] = substrate: O=c1[nH]ccc(=S)[nH]1; assay: purified protein; settings: 5 mM D-Rib5P, 2 mM MnCl2, 50 mM HEPES pH 7.0, 37 °C, reverse (synthesis) direction

Molecule	phosphorylation, TLC (Ribokinase (RbsK))	Km (purified protein [1]) [µM]	kcat (purified protein [1]) [s⁻¹]	Km (purified protein [2]) [µM]	kcat (purified protein [2]) [s⁻¹]	Km (purified protein [3]) [µM]	kcat (purified protein [3]) [s⁻¹]	Km (purified protein [4]) [µM]	kcat (purified protein [4]) [s⁻¹]
OC[C@H]1OC(O)C[C@@H]1O (stereo partly drawn) [D-dRib]	D-Rib, D-dRib, D-Xyl, D-Ara,2F-D-Rib, D-Glc were accepted								
YeiN (ΨMP C-glycosidase; β-pseudouridine 5′-phosphate glycosidase) (Escherichia coli K-12) (protein) MSELKISPELLQISPEVQDALKNKKPVVALESTIISHGMPFPQNAQTAIEVEETIRKQGAVPATIAIIGGVMKVGLSKEEIELLGREGHNVTKVSRRDLPFVVAAGKNGATTVASTMIIAALAGIKVFATGGIGGVHRGAEHTFDISADLQELANTNVTVVCAGAKSILDLGLTTEYLETFGVPLIGYQTKALPAFFCRTSPFDVSIRLDSASEIARAMVVKWQSGLNGGLVVANPIPEQFAMPEHTINAAIDQAVAEAEAQGVIGKESTPFLLARVAELTGGDSLKSNIQLVFNNAILASEIAKEYQRLAG		1250 ± 330	0.46 ± 0.04	3230 ± 520	0.01 ± 0.01	7400 ± 2200	0.43 ± 0.10	1980 ± 300	0.01 ± 0.01
